± gives the uncertainty stated by the source.
Assay: self-splicing fitness, log relative to wild type (ln ratio); higher = more splicing; Tetrahymena group I intron in knt gene, E. coli kanamycin selection, DiMSum; sequences stand for … in CUCUCU…GGAGGGAAAAGUUAUCAGGCAUGCACCUGGUAGCUAGUCUUUAAACCAAUAGAUUGCAUCGGUUUAAAAGGCAAGACCGUCAAAUUGCGGGAAAGGGGUCAACAGCCGUUCAGUACCAAGUCUCAGGGGAAACUUUGAGAUGGCCUUGCAAAGGGUAUGGUAAUAAGCUGACGGACAUGGUCCUAACCACGCAGCCAAGUCCUAAGUCAACAGAUCUUCUGUUGAUAUGGAUGCAGUUCACAGACUAAAUGUCGGUCGGGGAAGAUGUAUUCUUCUCAUAAGAUAUAGUCGGACCUCUCCUUAAUGGGAGCUAGCGGAUGAAGUGAUGCAACACUGGAGCCGCUGGGAACUAAUUUGUAUGCGAAAGUAUAUUGAUUAGUUUUGGAGUACUCGUGGUCG
Method in brief: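 The eight P1ex-region nucleotides of an intron in the knt kanamycin-resistance gene on pET-22b(+) were all randomised and the library put into E. coli BL21(DE3). Six replicate transformations were grown overnight at 37°C or 30°C on LB agar with or without 25 μg/mL kanamycin, together with 100 μg/mL carbenicillin, 50 μM IPTG and 0.2% rhamnose. Colonies were pooled and amplicon-sequenced on an Illumina HiSeq 2500. Fitness from DiMSum is the error-weighted combination of wild-type-normalised replicate fold changes, kanamycin over none.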

Sequence	self-splicing fitness (ln) (37 °C)	self-splicing fitness (ln) (30 °C)
CUCUAGCAAUAUUACGAUCU	-1.9 ± 0.3	–
CUCUAGCAAUAUUACGCAGA	-3.59 ± 0.22	-4.08 ± 0.31
CUCUAGCAAUAUUACGCGUU	-2.14 ± 0.18	–
CUCUAGCAAUAUUACGCUGG	-1.51 ± 0.32	-3.13 ± 0.23
CUCUAGCAAUAUUACGGCAA	–	-2.38 ± 0.2
CUCUAGCAAUAUUACGGCGC	-3.04 ± 0.43	-2.53 ± 0.28
CUCUAGCAAUAUUACGGCUG	-2.31 ± 0.25	-2.87 ± 0.24
CUCUAGCAAUAUUACGUAUA	-2.84 ± 0.25	-2.7 ± 0.3
CUCUAGCAAUAUUACGUAUU	-3.57 ± 0.25	-2.14 ± 0.13
CUCUAGCAAUAUUACGUCUC	-1.81 ± 0.29	-3.06 ± 0.23
CUCUAGCAAUAUUACGUUCU	-3.47 ± 0.22	-3.1 ± 0.15
CUGAAGCAAUAUUACGAAUA	-2.22 ± 0.43	-2.41 ± 0.48
CUGAAGCAAUAUUACGAAUU	-1.86 ± 0.14	-3.24 ± 0.12
CUGAAGCAAUAUUACGACCG	0.854 ± 0.17	0.3 ± 0.15
CUGAAGCAAUAUUACGACGC	–	-3.78 ± 0.35
CUGAAGCAAUAUUACGACUU	-1.75 ± 0.3	-3.13 ± 0.35
CUGAAGCAAUAUUACGAUUA	-2.84 ± 0.29	-2.6 ± 0.2
CUGAAGCAAUAUUACGAUUC	-2.5 ± 0.29	-3.13 ± 0.23
CUGAAGCAAUAUUACGCCAA	–	-3.31 ± 0.41
CUGAAGCAAUAUUACGCCUA	-3.63 ± 0.33	-3.82 ± 0.24
CUGAAGCAAUAUUACGCUGC	–	-2.12 ± 0.34
CUGAAGCAAUAUUACGGAAC	-2.55 ± 0.3	–
CUGAAGCAAUAUUACGGAAG	-0.636 ± 0.12	-1.37 ± 0.096
CUGAAGCAAUAUUACGGACA	-2.22 ± 0.27	-1.79 ± 0.14
CUGAAGCAAUAUUACGGAUU	-3.01 ± 0.26	-4.16 ± 0.17

Sequence	self-splicing fitness (ln) (37 °C)	self-splicing fitness (ln) (30 °C)
CUGAAGCAAUAUUACGGCUU	-2.84 ± 0.26	-4 ± 0.34
CUGAAGCAAUAUUACGUAAA	-1.7 ± 0.46	-2.54 ± 0.33
CUGAAGCAAUAUUACGUCAC	-2.73 ± 0.24	-2.03 ± 0.11
CUGAAGCAAUAUUACGUGAU	-1.07 ± 0.15	-2.7 ± 0.12
CUGCAGCAAUAUUACGAACU	-2.34 ± 0.33	-2.75 ± 0.3
CUGCAGCAAUAUUACGACGG	-0.0134 ± 0.14	-2.75 ± 0.17
CUGCAGCAAUAUUACGAGCG	0.667 ± 0.11	-0.799 ± 0.093
CUGCAGCAAUAUUACGAGGG	-1.95 ± 0.17	-4.19 ± 0.24
CUGCAGCAAUAUUACGCAAU	-2.77 ± 0.21	-3.55 ± 0.25
CUGCAGCAAUAUUACGCCCA	-1.31 ± 0.49	–
CUGCAGCAAUAUUACGCUUG	-2.25 ± 0.22	-3.55 ± 0.2
CUGCAGCAAUAUUACGCUUU	-2.6 ± 0.26	-4.46 ± 0.28
CUGCAGCAAUAUUACGGACU	-1.33 ± 0.15	-3.58 ± 0.21
CUGCAGCAAUAUUACGGGCG	-0.522 ± 0.073	-1.3 ± 0.059
CUGCAGCAAUAUUACGGGGA	-2.22 ± 0.18	-2.72 ± 0.19
CUGCAGCAAUAUUACGGUAA	-1.76 ± 0.14	-2.7 ± 0.16
CUGCAGCAAUAUUACGGUAU	-2.85 ± 0.19	-4.53 ± 0.25
CUGCAGCAAUAUUACGGUGA	-0.923 ± 0.099	-2.37 ± 0.12
CUGCAGCAAUAUUACGGUUU	-1.43 ± 0.12	-3.11 ± 0.13
CUGCAGCAAUAUUACGUAAA	-1.19 ± 0.14	-3.28 ± 0.14
CUGCAGCAAUAUUACGUAAC	-2.38 ± 0.29	-3.31 ± 0.26
CUGCAGCAAUAUUACGUACA	-1.43 ± 0.19	-2.96 ± 0.29
CUGCAGCAAUAUUACGUGGU	-3.71 ± 0.31	-3.34 ± 0.18
CUGGAGCAAUAUUACGAAGU	-2.38 ± 0.43	-2.22 ± 0.37
CUGGAGCAAUAUUACGAGCA	-2.63 ± 0.42	-2.32 ± 0.46

Source: the supplement of paper PMC7877785
